Assay results published in patent US20070265189A1 (published 2007).

How the values were obtained:
[1] = biological target: T1, human insulin receptor (HIR) (human, UniProt P06213 28-1382, limits assumed); assay: competition with 125I-insulin, solubilised HIR
[2] = biological target: T2, soluble HIR ectodomain (sIR) (human, UniProt P06213 28-956, limits assumed); assay: FP on sIR, competitor FITC-RP9
T2 construct: extracellular domain
Text: Fluorescence polarization assays (FP) were used for peptide competition studies.

[3] = biological target: T3, Insulin receptor prepared according to Bass et al., 1996 (human, UniProt P06213 28-956, limits assumed)
T3 construct: extracellular domain; also called IR; soluble IR (Bass construct); not shown: immunoglobulin constant domains (Fc or lambda) of the Bass construct

[4] = biological target: T4, Soluble IGF-1R (R&D Systems, Cat. # 391-GR/CF) (UniProt P08069 31-935, limits assumed)
T4 construct: extracellular domain; also called sIGF-1R; IGFR

[5] = biological target: T4, Soluble IGF-1R (R&D Systems, Cat. # …); assay: phage ELISA: IGF-1R ratio over background divided by IR ratio over background
[6] = biological target: T3, Insulin receptor prepared according to …; assay: phage ELISA: IR ratio over background divided by IGF-1R ratio over background
[7] = biological target: T5, soluble human insulin receptor-immunoglobulin heavy chain chimera (sIR-Fc) (human, UniProt P06213 28-956, limits assumed, Eu3+ (LANCE) label in the TR-FRET assays); assay: FP on sIR-Fc, competitor FITC-RP9
T5 construct: extracellular domain; Construct of Bass et al., 1996; also called HIR-immunoglobulin heavy chain chimera; not shown: immunoglobulin heavy chain constant domains

[8] = biological target: T5, soluble human insulin …; assay: TR-FRET on Eu-sIR-Fc, competitor b-S175
Description: (§1) The TR-FRET assays were performed in a 384-well white microplate with a final volume of 30 μl.

[9] = biological target: T1, human insulin receptor (HIR); assay: radio-receptor assay on HIR, competitor 125I-insulin
[10] = biological target: T5, soluble human insulin …; assay: TR-FRET on Eu-sIR-Fc, competitor b-RP9
Description: Time-resolved fluorescence resonance energy transfer assays (TR-FRET) were used for peptide competition studies.
as §1

[11] = biological target: T6, human insulin receptor (HIR) (human, UniProt P06213 28-1382, limits assumed); assay: 125I-insulin displacement, purified HIR
T6 construct: solubilised receptor

[12] = biological target: T7, soluble human insulin receptor-immunoglobulin heavy chain chimera (sIR-Fc) (human, UniProt P06213 28-956, limits assumed); assay: fluorescence polarization; competitor against 1 nM FITC-RP9 on sIR-Fc
T7 construct: extracellular domain; Construct of Bass et al., 1996; not shown: immunoglobulin heavy chain constant domains

[13] = biological target: T8, recombinant human IGF-1R (rhIGF-1R) (human, UniProt P08069 31-935); assay: TR-FRET; competitor against 15 nM b-20E2 on Eu-labeled rhIGF-1R
T8 construct: extracellular domain; Coated on plates in the DELFIA assay and Eu3+ (LANCE) labeled in the TR-FRET assays

For SLEEEWAQVECEVYGRGCPSGSLDESFYHWFERQLG [S542], the Kd [1] was 0.027 nM.

With SIEEEWAQIKCDVWGRGCPSY [S593] the Kd [1] was 2.2 nM.

B1: S414 (peptide)
peptide 1: ESFYDWFERQLGKX
peptide 2: ESFYDWFERQLGKX
modifications: C-terminal Lig′ joined to chemical linker 14
notes: Lig′ = lysine with a 2-aminohydroxyacetyl group on the side chain amino group; also called (truncated(-GSLD)RP9(-KK))2-14
Work on B1 yielded an IC50 [2] of 0.2 nM.

Work on LDQEWAWVQSEVYGRGSPSESFYDWFERQL [S509] yielded a Kd [1] of 5.7 nM.

B2: 40F-4-B1-IGFR (peptide)
peptide: DYKDGLDHSDAVGVHLGFAWPAQARGRWEAGGLEDTWAGYDWLAAAGAP
notes: not shown: rest of the phage display fusion (remainder of E-Tag, phage coat protein)
For B2, the “Ratio over Background, IR” value [3] was 0.2 ratio over background, the “Ratio over Background, IGF-1R” value [4] was 3 ratio over background and the “Comparison IGF-1R/IR” value [5] was 13.1 ratio. For the same binder, the “Comparison IR/IGF-1R” value [6] was 0.1 ratio.

For SLEEEWAQIQHELYGPAESESFYDWFERQL [S596], the Kd [1] was 0.045 nM.

Work on LEEEWAQIQREVWHSPASESFYDWFERQL [S595] yielded a Kd [1] of 0.62 nM.

SIEEEWAQIKCDVWGRGCPSESFYDWFERQL [S517] showed a Kd [1] of 0.006 nM.

B3: S337 (peptide)
peptide 1: GSLDESFYDWFERQLGKKX
peptide 2: GSLDESFYDWFERQLGKKX
modifications: C-terminal Lig′ joined to chemical linker 23
notes: C-C dimer through chemical linker 23; also called (RP9-Lig)2-23
In the case of B3, the IC50 [2] is reported as 0.2 nM, the IC50 [7] is reported as 1 nM and the IC50 [8] is reported as 0.2 nM.

For HHHHHHKLDQEWAWVQCEVYGRGCPSESFYDWFERQLG [S481], the Kd [1] was 1.3 nM.

For FHENFYDWFVRQVSKK (also called D117) [H2C], the IC50 [2] was 37 nM, the IC50 [7] was 50 nM and the IC50 [9] was 700 nM. For the same binder, the IC50 [8] was 410 nM and the IC50 [10] was 1630 nM.

B4: S550 (peptide)
peptide: GSLDESFYDWFERQLGXK
modifications: as printed: Ac-GSLDESFYDWFERQLG-POX-K; N-terminal acetyl; POX between G and the C-terminal K
notes: POX is not explained
Binder B4 has a Kd [1] of 40 nM.

SLEEEWAQVECEVYGRGCPSESFYDWFVRQLG [S555] was tested, and the Kd [1] was 0.057 nM.

SLEEEWAQIECEVWGRGCSGSLDESFYDWFERQL [S561] was tested, and the Kd [1] was 0.018 nM.

TFYSCLASLLTGTPQPNRGPWERCRKK [S327] was tested, and the Kd [11] was 2700 nM.

B5: S229 (peptide)
peptide 1: SDGFYNAIELLSX
peptide 2: KHLCVLEELFWGASLFGYCSGKKX
modifications: C-terminal Lig joined to linker 12
notes: heterodimer F2-F4, C-C
B5 was tested, and the Kd [11] was 4.4 nM.

B6: S380 (peptide)
peptide 1: EEDWLQRNANFYDWFVAELX
peptide 2: EEDWLQRNANFYDWFVAELX
modifications: C-terminal Lig′ joined to chemical linker 9
notes: C-C dimer through chemical linker 9; also called (EE-short-S175-Lig)2-9
With B6 the IC50 [2] was 0.5 nM and the IC50 [8] was 10 nM.

For SLEEEWAQIECEVWGRGCPSGSLDESFYDWFERQL [S560], the Kd [1] was 0.014 nM.

B7: S300 (peptide)
peptide 1: DWLQRNANFYDWFVAELX
peptide 2: DWLQRNANFYDWFVAELX
modifications: C-terminal Lig′ joined to linker 14
notes: dimer, C-C
Work on B7 yielded a Kd [11] of 50 nM.

Binder FHENFYDWFVRQVSKK [H2C (D117)] has an IC50 [12] of 66 nM and an IC50 [13] of 460 nM.
